How the values were obtained:
Nop1^83–321 = target: T1, Nop1^83–321 (S. cerevisiae, UniProt P15646 83-321); assay: SEC
T1 sequence (looked up): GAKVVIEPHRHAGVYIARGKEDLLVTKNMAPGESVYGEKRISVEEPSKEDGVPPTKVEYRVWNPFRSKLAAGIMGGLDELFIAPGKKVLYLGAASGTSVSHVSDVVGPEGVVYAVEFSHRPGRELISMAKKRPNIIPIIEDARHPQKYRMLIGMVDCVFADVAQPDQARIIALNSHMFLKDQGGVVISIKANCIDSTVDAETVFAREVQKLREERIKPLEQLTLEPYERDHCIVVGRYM

Sc Nop1^83–327 = target: T2, Sc Nop1^83–327 (S. cerevisiae, UniProt P15646 83-327); assay: SEC
T2 sequence (looked up): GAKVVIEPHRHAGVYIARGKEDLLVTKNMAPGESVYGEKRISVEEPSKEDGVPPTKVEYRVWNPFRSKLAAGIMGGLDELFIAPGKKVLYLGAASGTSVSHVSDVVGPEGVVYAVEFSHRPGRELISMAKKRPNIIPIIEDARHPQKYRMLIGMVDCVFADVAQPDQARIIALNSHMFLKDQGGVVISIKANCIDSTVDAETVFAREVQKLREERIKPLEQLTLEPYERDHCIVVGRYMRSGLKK

B1: Sc Nop56^1–166 (domain or fragment, S. cerevisiae, UniProt Q12460 1-166, looked up)
chain: MAPIEYLLFEEPTGYAVFKVKLQQDDIGSRLKEVQEQINDFGAFTKLIELVSFAPFKGAAEALENANDISEGLVSESLKAILDLNLPKASSKKKNITLAISDKNLGPSIKEEFPYVDCISNELAQDLIRGVRLHGEKLFKGLQSGDLERAQLGLGHAYSRAKVKFS
binding result (Nop1^83–321): binds

B2: Nop56^1–166-Q35A/N39A (domain or fragment, S. cerevisiae, UniProt Q12460 1-166, looked up)
chain: MAPIEYLLFEEPTGYAVFKVKLQQDDIGSRLKEVAEQIADFGAFTKLIELVSFAPFKGAAEALENANDISEGLVSESLKAILDLNLPKASSKKKNITLAISDKNLGPSIKEEFPYVDCISNELAQDLIRGVRLHGEKLFKGLQSGDLERAQLGLGHAYSRAKVKFS
binding result (Sc Nop1^83–327): binds

B3: Sc Nop56^1–166-L147W/E148F (domain or fragment, S. cerevisiae, UniProt Q12460 1-166, looked up)
chain: MAPIEYLLFEEPTGYAVFKVKLQQDDIGSRLKEVQEQINDFGAFTKLIELVSFAPFKGAAEALENANDISEGLVSESLKAILDLNLPKASSKKKNITLAISDKNLGPSIKEEFPYVDCISNELAQDLIRGVRLHGEKLFKGLQSGDWFRAQLGLGHAYSRAKVKFS
binding result (Sc Nop1^83–327): binds

From article PMC7962484 (RNA, 2021)
